# Measured values published in paper PMC6642264, “Hydrophobic recognition allows the glycosyltransferase UGT76G1 to catalyze its substrate in two orientations” (Nature Communications, 2019).
# Columns and labels:
# UGT76G1 [1] = biological target: T1, UGT76G1 (Stevia rebaudiana, UniProt Q6VAB4, H25A); experiment: X-ray crystal structure; assay type: binding; conditions: sodium citrate pH 5.4, PEG 4000; 1 mM UDP
# T1 construct: synthetic gene in pET21a (NdeI/XhoI), C-terminal hexa-histidine tag, E. coli BL21 (DE3), monomer
# UGT76G1 [2] = biological target: T2, UGT76G1 (Stevia rebaudiana, UniProt Q6VAB4); experiment: X-ray crystal structure; assay type: binding
# T2 construct: synthetic gene in pET21a (NdeI/XhoI), C-terminal hexa-histidine tag, E. coli BL21 (DE3), monomer
# T2 sequence (Q6VAB4 1-458): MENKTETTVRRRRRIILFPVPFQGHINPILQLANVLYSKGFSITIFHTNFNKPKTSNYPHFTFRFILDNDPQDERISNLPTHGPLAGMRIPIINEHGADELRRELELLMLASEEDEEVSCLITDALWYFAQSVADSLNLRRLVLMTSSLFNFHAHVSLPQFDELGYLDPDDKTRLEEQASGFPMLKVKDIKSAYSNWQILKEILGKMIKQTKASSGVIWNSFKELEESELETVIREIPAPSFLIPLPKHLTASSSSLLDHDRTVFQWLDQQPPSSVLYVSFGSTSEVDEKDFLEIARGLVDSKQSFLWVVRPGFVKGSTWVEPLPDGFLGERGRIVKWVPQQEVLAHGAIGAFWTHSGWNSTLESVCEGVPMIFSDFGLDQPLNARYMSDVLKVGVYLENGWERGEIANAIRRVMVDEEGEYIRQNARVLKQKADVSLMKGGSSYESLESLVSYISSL
# [3] = substrate: C=C1C[C@@]23CC[C@H]4[C@@](C)(CCC[C@@]4(C)C(=O)O[C@@H]4O[C@H](CO)[C@@H](O)[C@H](O)[C@H]4O)[C@@H]2CC[C@]1(O[C@@H]1O[C@H](CO)[C@@H](O)[C@H](O)[C@H]1O)C3; experiment: UDP-Glo glycosyltransferase assay, Michaelis-Menten fit; assay type: biochemical, Stevia rebaudiana; conditions: UDPG 100 μM; transfer at R1 (initial rate, <10% consumption)
# Source text: (§1) UDP-Glo glycosyltransferase assay, Michaelis-Menten fit on UGT76G1
# [4] = substrate: C=C1C[C@@]23CC[C@H]4[C@@](C)(CCC[C@@]4(C)C(=O)O[C@@H]4O[C@H](CO)[C@@H](O)[C@H](O)[C@H]4O[C@@H]4O[C@H](CO)[C@@H](O)[C@H](O)[C@H]4O)[C@@H]2CC[C@]1(O[C@@H]1O[C@H](CO)[C@@H](O)[C@H](O)[C@H]1O[C@@H]1O[C@H](CO)[C@@H](O)[C@H](O)[C@H]1O)C3; experiment: as above; assay type: biochemical, Stevia rebaudiana; conditions: UDPG 100 μM; transfer at R1 (initial rate, <10% consumption)
# Source text: as §1
# [5] = substrate: O=c1ccn([C@@H]2O[C@H](CO[P@@](=O)(O)O[P@@](=O)(O)O[C@H]3O[C@H](CO)[C@@H](O)[C@H](O)[C@H]3O)[C@@H](O)[C@H]2O)c(=O)[nH]1; experiment: as above; assay type: biochemical, Stevia rebaudiana; conditions: sugar donor; acceptor STB 50 μM
# Source text: as §1
# [6] = substrate: C=C1C[C@@]23CC[C@H]4[C@@](C)(CCC[C@@]4(C)C(=O)O)[C@@H]2CC[C@]1(O[C@@H]1O[C@H](CO)[C@@H](O)[C@H](O)[C@H]1O[C@@H]1O[C@H](CO)[C@@H](O)[C@H](O)[C@H]1O)C3; experiment: as above; assay type: biochemical, Stevia rebaudiana; conditions: UDPG 100 μM; transfer at R1
# Source text: as §1
# purified protein [7] = substrate: C=C1C[C@@]23CC[C@H]4[C@@](C)(CCC[C@@]4(C)C(=O)O[C@@H]4O[C@H](CO)[C@@H](O)[C@H](O)[C@H]4O)[C@@H]2CC[C@]1(O[C@@H]1O[C@H](CO)[C@@H](O)[C@H](O)[C@H]1O[C@@H]1O[C@H](CO)[C@@H](O)[C@H](O)[C@H]1O)C3; experiment: purified protein; conditions: UDPG 100 μM; transfer at R1 (initial rate, <10% consumption)
# purified protein [8] = substrate: C=C1C[C@@]23CC[C@H]4[C@@](C)(CCC[C@@]4(C)C(=O)O[C@@H]4O[C@H](CO)[C@@H](O)[C@H](O)[C@H]4O)[C@@H]2CC[C@]1(O[C@@H]1O[C@H](CO)[C@@H](O)[C@H](O[C@@H]2O[C@H](CO)[C@@H](O)[C@H](O)[C@H]2O)[C@H]1O[C@@H]1O[C@H](CO)[C@@H](O)[C@H](O)[C@H]1O)C3; experiment: purified protein; conditions: UDPG 100 μM; transfer at R2
# T1 sequence (Q6VAB4 whole entry H25A): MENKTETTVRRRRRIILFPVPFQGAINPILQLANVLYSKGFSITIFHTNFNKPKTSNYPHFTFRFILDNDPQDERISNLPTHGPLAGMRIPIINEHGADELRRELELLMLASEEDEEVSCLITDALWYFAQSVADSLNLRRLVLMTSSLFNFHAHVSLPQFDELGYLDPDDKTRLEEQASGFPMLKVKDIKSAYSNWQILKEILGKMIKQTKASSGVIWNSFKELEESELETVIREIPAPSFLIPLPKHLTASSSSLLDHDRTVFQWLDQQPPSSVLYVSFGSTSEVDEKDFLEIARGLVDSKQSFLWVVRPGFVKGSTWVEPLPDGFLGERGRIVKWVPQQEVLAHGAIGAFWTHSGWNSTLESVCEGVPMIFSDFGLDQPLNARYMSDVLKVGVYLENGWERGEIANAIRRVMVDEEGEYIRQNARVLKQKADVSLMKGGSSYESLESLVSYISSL
molecule,measurement,setting,value
O=c1ccn([C@@H]2O[C@H](COP(=O)(O)OP(=O)(O)O)[C@@H](O)[C@H]2O)c(=O)[nH]1 [UDP],X-ray crystal structure,UGT76G1 [1],both the wild type and H25A mutant of UGT76G1 with UDP
same,X-ray crystal structure,"UGT76G1 [2]; sodium citrate pH 5.4, PEG 4000, 1 mM UDP",both the wild type and H25A mutant of UGT76G1 with UDP
C=C1C[C@@]23CC[C@H]4[C@@](C)(CCC[C@@]4(C)C(=O)O[C@@H]4O[C@H](CO)[C@@H](O)[C@H](O)[C@H]4O)[C@@H]2CC[C@]1(O[C@@H]1O[C@H](CO)[C@@H](O)[C@H](O)[C@H]1O)C3 [Rubu],X-ray crystal structure,"UGT76G1 [2]; ternary complex with UDP, bound at active site, second remote molecule called artifact",the wild type with UDP and Rubu
"UGT76G1 (Stevia rebaudiana) (protein, synthetic gene in pET21a (NdeI/XhoI), C-terminal hexa-histidine tag, E. coli BL21 (DE3), monomer) MENKTETTVRRRRRIILFPVPFQGHINPILQLANVLYSKGFSITIFHTNFNKPKTSNYPHFTFRFILDNDPQDERISNLPTHGPLAGMRIPIINEHGADELRRELELLMLASEEDEEVSCLITDALWYFAQSVADSLNLRRLVLMTSSLFNFHAHVSLPQFDELGYLDPDDKTRLEEQASGFPMLKVKDIKSAYSNWQILKEILGKMIKQTKASSGVIWNSFKELEESELETVIREIPAPSFLIPLPKHLTASSSSLLDHDRTVFQWLDQQPPSSVLYVSFGSTSEVDEKDFLEIARGLVDSKQSFLWVVRPGFVKGSTWVEPLPDGFLGERGRIVKWVPQQEVLAHGAIGAFWTHSGWNSTLESVCEGVPMIFSDFGLDQPLNARYMSDVLKVGVYLENGWERGEIANAIRRVMVDEEGEYIRQNARVLKQKADVSLMKGGSSYESLESLVSYISSL",Km,[3],54.4 ± 4.0 µM
same,kcat,[3],0.0983 ± 0.00167 s⁻¹
same,kcat/Km,[3],1800 M⁻¹ s⁻¹
same,Km,[4],9.2 ± 0.7 µM
same,kcat,[4],0.355 ± 0.00833 s⁻¹
same,kcat/Km,[4],38600 M⁻¹ s⁻¹
same,Km,[5],5.6 ± 0.4 µM
same,kcat,[5],0.0683 ± 0.00167 s⁻¹
same,kcat/Km,[5],12400 M⁻¹ s⁻¹
same,Km,[6],4.8 ± 0.4 µM
same,kcat,[6],0.08 ± 0.00167 s⁻¹
same,kcat/Km,[6],16500 M⁻¹ s⁻¹
same,Km,purified protein [7],25.5 ± 3.4 µM
same,kcat,purified protein [7],0.697 s⁻¹
same,kcat/Km,purified protein [7],27300 M⁻¹ s⁻¹
same,Km,purified protein [8],243.4 ± 28.1 µM
same,kcat,purified protein [8],0.002 s⁻¹
same,kcat/Km,purified protein [8],8 M⁻¹ s⁻¹
